Measurements as given in article PMC10877727, “Effect of TraN key residues involved in DNA binding on pIP501 transfer rates in Enterococcus faecalis”.

B1: random DNA 34-mer (dsDNA)
DNA 1: AGGGCGCACTTATACGCAGTAACTTCGTTACTTC
DNA 2: GAAGTAACGAAGTTACTGCGTATAAGTGCGCCCT
B2: oBS 34-mer (original TraN binding site) (dsDNA)
DNA 1: CGGAAATGTCAGGTTAAACATATTTACTTTTATA
DNA 2: TATAAAAGTAAATATGTTTAACCTGACATTTCCG

Columns and labels:
Conditions in all cases: protein: recombinant; tags: N-terminal 7xHis (pQTEV); blunt
TraN_G100A-K101A [1] = target: T1, TraN_G100A-K101A (Enterococcus faecalis plasmid pIP501, UniProt Q7BVV5 1-122, G100A;K101A); assay: MST; no sigmoidal fit possible up to 12.8 uM DNA; extremely low affinity; MST in PBS-T (pH and temperature not stated); 50 nM RED-tris-NTA labelled His-protein, dsDNA 0.781 nM to 12.8 uM; Monolith NT.115, 60% LED and MST power
TraN_H82A-R86A [2] = target: T2, TraN_H82A-R86A (Enterococcus faecalis plasmid pIP501, UniProt Q7BVV5 1-122, H82A;R86A); assay: as above
TraN_G100A-K101A [3] = target: T1, TraN_G100A-K101A; assay: MST; MST in PBS-T (pH and temperature not stated); 50 nM RED-tris-NTA labelled His-protein, dsDNA 0.781 nM to 12.8 uM; Monolith NT.115, 60% LED and MST power
TraN_H82A-R86A [4] = target: T2, TraN_H82A-R86A; assay: as above
TraN_G47A-G48A = TraN_G47A-G48A (Enterococcus faecalis plasmid pIP501, UniProt Q7BVV5 1-122, G47A;G48A); assay: as above
TraN = TraN (Enterococcus faecalis plasmid pIP501, UniProt Q7BVV5 1-122); assay: as above
TraN_R23A-N24A-Q28A = TraN_R23A-N24A-Q28A (Enterococcus faecalis plasmid pIP501, UniProt Q7BVV5 1-122, R23A;N24A;Q28A); assay: as above

Binder | binding result (TraN_G100A-K101A [1]) | binding result (TraN_H82A-R86A [2]) | Kd (TraN_G100A-K101A [3]) [nM] | Kd (TraN_H82A-R86A [4]) [nM] | Kd (TraN_G47A-G48A) [nM] | Kd (TraN) [nM] | Kd (TraN_R23A-N24A-Q28A) [nM]
B1 | no binding | no binding |  |  |  |  | 
B2 |  |  | 406 ± 45.5 | 425 ± 102 | 48.8 ± 9.75 | 11.7 ± 2.65 | 154 ± 19.5
